Experimental findings from patent publication US20120309692A1 are described below.

In the experiment the target is recombinant human glandular kallikrein 2 (hK2) (human) (UniProt P20151). Nature of the experiment: cell-based or functional assay.

Sequence of SLPI (P03973 26-132 limits assumed): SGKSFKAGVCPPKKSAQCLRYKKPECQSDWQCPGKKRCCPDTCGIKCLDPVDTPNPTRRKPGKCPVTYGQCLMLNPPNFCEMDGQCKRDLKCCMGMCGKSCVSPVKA

Regarding PPACK (peptide), the hK2 Activity (%) of inhibitor-free control, inhibitor at 5 µM was 0%. Turning to SLPI (from UniProt P03973 26-132), the hK2 Activity (%) of inhibitor-free control, inhibitor at 0.08 µM stood at 92% and the hK2 Activity (%) of inhibitor-free control, inhibitor at 4 µM turned out to be 35%. antipain (peptide): the hK2 Activity (%) of inhibitor-free control, inhibitor at 100 µM was 33% and the hK2 Activity (%) of inhibitor-free control, inhibitor at 500 µM is 10%. For leupeptin (peptide), the hK2 Activity (%) of inhibitor-free control, inhibitor at 100 µM was determined as 12%.
